From patent publication US20020127684

Experiments:
GST-ATF2 = biological target: T1, GST-ATF2
T1 sequence (P15336 whole entry, species assumed, looked up): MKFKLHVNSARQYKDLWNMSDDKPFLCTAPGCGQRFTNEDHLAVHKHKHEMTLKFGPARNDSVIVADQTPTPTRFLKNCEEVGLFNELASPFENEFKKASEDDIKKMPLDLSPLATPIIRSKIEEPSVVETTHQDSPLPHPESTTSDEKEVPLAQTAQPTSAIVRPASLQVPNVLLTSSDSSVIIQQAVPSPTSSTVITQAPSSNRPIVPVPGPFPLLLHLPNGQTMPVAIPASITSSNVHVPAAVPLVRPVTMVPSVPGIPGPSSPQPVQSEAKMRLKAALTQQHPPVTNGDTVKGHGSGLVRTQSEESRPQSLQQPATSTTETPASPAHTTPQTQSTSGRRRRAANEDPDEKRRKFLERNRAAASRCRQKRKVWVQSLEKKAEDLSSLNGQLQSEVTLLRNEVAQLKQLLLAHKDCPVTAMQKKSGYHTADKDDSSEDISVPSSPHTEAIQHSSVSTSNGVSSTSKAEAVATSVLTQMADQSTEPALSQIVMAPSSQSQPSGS

Measured: in vitro kinase assay with gamma-32P ATP: phosphorylation of heterologous substrate

myelin basic protein, sequence (P02687 whole entry): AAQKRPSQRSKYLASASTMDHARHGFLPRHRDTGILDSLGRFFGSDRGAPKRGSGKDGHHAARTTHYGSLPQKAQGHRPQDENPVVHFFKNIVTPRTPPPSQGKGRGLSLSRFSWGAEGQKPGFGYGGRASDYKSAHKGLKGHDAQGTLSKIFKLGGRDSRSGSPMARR

B1: GST-CARK fusion protein (full length human CARK) (protein)
chain: MGNYKSRPTQTCTDEWKKKVSESYVITIERLEDDLQIKEKELTELRNIFGSDEAFSKVNLNYRTENGLSLLHLCCICGGKKSHIRTLMLKGLRPSRLTRNGFTALHLAVYKDNAELITSLLHSGADIQQVGYGGLTALHIATIAGHLEAADVLLQHGANVNIQDAVFFTPLHIAAYYGHEQVTRLLLKFGADVNVSGEVGDRPLHLASAKGFLNIAKLLMEEGSKADVNAQDNEDHVPLHFCSRFGHHDIVKYLLQSDLEVQPHVVNIYGDTPLHLACYNGKFEVAKEIIQISGTESLTKENIFSETAFHSACTYGKSIDLVKFLLDQNVININHQGRDGHTGLHSACYHGHIRLVQFLLDNGADMNLVACDPSRSSGEKDEQTCLMWAYEKGHDAIVTLLKHYKRPQDELPCNEYSQPGGDGSYVSVPSPLGKIKSMTKEKADILLLRAGLPSHFHLQLSEIEFHEIIGSGSFGKVYKGRCRNKIVAIKRYRANTYCSKSDVDMFCREVSILCQLNHPCVIQFVGACLNDPSQFAIVTQYISGGSLFSLLHEQKRILDLQSKLIIAVDVAKGMEYLHNLTQPIIHRDLNSHNILLYEDGHAVVADFGESRFLQSLDEDNMTKQPGNLRWMAPEVFTQCTRYTIKADVFSYALCLWEILTGEIPFAHLKPAAAAADMAYHHIRPPIGYSIPKPISSLLIRGWNACPEGRPEFSEVVMKLEECLCNIELMSPASSNSSGSLSPSSSSDCLVNRGGPGRSHVAALRSRFELEYALNARSYAALSQSAGQYSSQGLSLEEMKRSLQYTPIDKYGYVSDPMSSMHFHSCRNSSSFEDSS
phosphorylated: myelin basic protein | Phas-1 (4E-BP-1) | GST-ATF2 | H1 histone

B2: GST-CARK-KD fusion protein (CARK kinase domain, amino acid residues 424 to 835 of SEQ ID NO:2) (protein)
chain: SYVSVPSPLGKIKSMTKEKADILLLRAGLPSHFHLQLSEIEFHEIIGSGSFGKVYKGRCRNKIVAIKRYRANTYCSKSDVDMFCREVSILCQLNHPCVIQFVGACLNDPSQFAIVTQYISGGSLFSLLHEQKRILDLQSKLIIAVDVAKGMEYLHNLTQPIIHRDLNSHNILLYEDGHAVVADFGESRFLQSLDEDNMTKQPGNLRWMAPEVFTQCTRYTIKADVFSYALCLWEILTGEIPFAHLKPAAAAADMAYHHIRPPIGYSIPKPISSLLIRGWNACPEGRPEFSEVVMKLEECLCNIELMSPASSNSSGSLSPSSSSDCLVNRGGPGRSHVAALRSRFELEYALNARSYAALSQSAGQYSSQGLSLEEMKRSLQYTPIDKYGYVSDPMSSMHFHSCRNSSSFEDSS
phosphorylated: myelin basic protein | Phas-1 (4E-BP-1) | GST-ATF2 | H1 histone
